Assay results from US20230143604A1, “QW DOSING OF GIP RECEPTOR AGONIST PEPTIDE COMPOUNDS AND USES THEREOF” (TAKEDA PHARMACEUTICAL COMPANY LIMITED, priority 2020, published 2023).
Numbering of substitutions follows the chain as printed. Starred links: 1 amine or outer side, 2 acyl side, 3 side chain; linkers in the order of their positions; H or OH if unused. Non-standard residues stand in square brackets, D forms with d. Groups on a side chain read outwards from the residue. No end group written: not given here. *: point of attachment. C20 diacid = O=C(O)CCCCCCCCCCCCCCCCCCC(=O)*; C18 diacid = O=C(O)CCCCCCCCCCCCCCCCC(=O)*; C17 diacid = O=C(O)CCCCCCCCCCCCCCCC(=O)*; γGlu = O=C(O)[C@H](CCC(=O)[*:2])N[*:1]; NMeY = CN[C@@H](Cc1ccc(O)cc1)C(=O)O; AEEA = NCCOCCOCC(=O)O; Aib = CC(C)(N)C(=O)O

T1: full-length human GIPR with an N-terminal FLAG tag (human, UniProt P48546 22-466)
T1 sequence (looked up): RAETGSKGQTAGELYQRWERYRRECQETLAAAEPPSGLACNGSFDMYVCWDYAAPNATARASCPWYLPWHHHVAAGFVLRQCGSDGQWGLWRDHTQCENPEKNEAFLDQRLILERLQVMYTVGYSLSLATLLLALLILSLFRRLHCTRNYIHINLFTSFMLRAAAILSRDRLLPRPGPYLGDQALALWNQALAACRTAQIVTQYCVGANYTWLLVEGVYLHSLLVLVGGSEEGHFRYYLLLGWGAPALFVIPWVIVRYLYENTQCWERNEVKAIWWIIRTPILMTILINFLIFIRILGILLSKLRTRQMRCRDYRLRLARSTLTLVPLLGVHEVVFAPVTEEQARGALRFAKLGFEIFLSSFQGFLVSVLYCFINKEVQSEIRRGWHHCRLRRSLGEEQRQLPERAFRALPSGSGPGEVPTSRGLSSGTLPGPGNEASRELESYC

B1: Compound No. 105 (peptide)
peptide: [NMeY][Aib]EGTFISDYSIAK([GGPAPAP-C18 diacid])DR[Aib]AQ[Aib]DFVNWLLAQSPSSGAPPPS-OH
B2: Compound No. 91 (peptide)
peptide: [NMeY][Aib]EGTFISDYSI[Aib]LDR[Aib]AQ[Aib]K([AEEA-AEEA-γGlu-C18 diacid])FVNWLLAQSPSSGAPPPS-NH2
B3: Compound No. 101 (peptide)
peptide: [NMeY][Aib]EGTFISDYSI[Aib]LDR[Aib]AQ[Aib]K([AEEA-AEEA-γGlu-γGlu-C20 diacid])FVNWLLAQRPSSGAPPPS-NH2
B4: Compound No. 85 (peptide)
peptide: [NMeY][Aib]EGTFISDYSI[Aib]LDR[Aib]AQ[Aib]K([2OEGgEgE-C18 diacid])FVNWLLAQSPG-OH
B5: Compound No. 99 (peptide)
peptide: [NMeY][Aib]EGTFISDYSIALDR[Aib]K([AEEA-AEEA-γGlu-γGlu-C20 diacid])Q[Aib]NFVNWLLAQSPSSGAPPPS-NH2
B6: Compound No. 6 (peptide)
peptide: [NMeY][Aib]EGTFISDYSIAKDR[Aib]AQ[Aib]NFVNWLLAQK-NH2
modifications: not fully specified (residue 14)
B7: Compound No. 92 (peptide)
peptide: [NMeY][Aib]EGTFISDYSI[Aib]LDR[Aib]AQ[Aib]K([AEEA-γGlu-AEEA-γGlu-C18 diacid])FVNWLLAQSPSSGAPPPS-NH2
B8: Compound No. 95 (peptide)
peptide: YXEGTFISDYSIXXDRXAQXNFVNWLLAQSPSSGAPPPS
modifications: N-methyl Tyr 1; Aib at 2,13,17,20; Lys(G5-C17 diacid) at 14; C-terminal OH
B9: Compound No. 96 (peptide)
peptide: B8 peptide
modifications: N-methyl Tyr 1; Aib at 2,13,17,20; Lys(G5-C18 diacid) at 14; C-terminal OH
B10: Compound No. 69 (peptide)
peptide: [NMeY][Aib]EGTFISDYSI[Aib]LDR[Aib]AQ[Aib]NFVNWLLAQK([2OEGgEgE-C20 diacid])PSSGAPPPS-NH2
B11: Compound No. 86 (peptide)
peptide: [NMeY][Aib]EGTFISDYSIALDR[Aib]AQ[Aib]K([2OEGgEgE-C18 diacid])FVNWLLAQSPG-OH
B12: Compound No. 84 (peptide)
peptide: YXEGTFISDYSIAXDRXAQXDFVNWLLAQSPG
modifications: N-methyl Tyr 1; Aib at 2,17,20; Lys(G5-C18 diacid) at 14; C-terminal OH
B13: Compound No. 88 (peptide)
peptide: B12 peptide with A13X, X14L
modifications: N-methyl Tyr 1; Aib at 2,13,20; Lys(G5-C18 diacid) at 17; C-terminal OH
B14: Compound No. 104 (peptide)
peptide: [NMeY][Aib]EGTFISDYSIALDR[Aib]AQ[Aib]K([GGPAPAP-γGlu-C18 diacid])FVNWLLAQSPSSGAPPPS-OH
B15: Compound No. 70 (peptide)
peptide: YXEGTFISDYSIAXDRXAQXDFVNWLLAQRPSSG
modifications: N-methyl Tyr 1; Aib at 2,17,20; Lys(G5-C18 diacid) at 14; C-terminal OH
B16: Compound No. 80 (peptide)
peptide: [NMeY][Aib]EGTFISDYSIAK([G4gE-C18 diacid])DR[Aib]AQ[Aib]DFVNWLLAQKG-OH
B17: Compound No. 74 (peptide)
peptide: [NMeY][Aib]EGTFISDYSI[Aib]LDR[Aib]K([2OEGgEgE-C18 diacid])Q[Aib]NFVNWLLAQRG-OH
B18: Compound No. 93 (peptide)
peptide: [NMeY][Aib]EGTFISDYSI[Aib]LDR[Aib]AQ[Aib]K([AEEA-γGlu-γGlu-C18 diacid])FVNWLLAQSPSSGAPPPS-NH2
B19: Compound No. 94 (peptide)
peptide: [NMeY][Aib]EGTFISDYSI[Aib]LDR[Aib]AQ[Aib]K([AEEA-AEEA-γGlu-γGlu-C17 diacid])FVNWLLAQSPSSGAPPPS-NH2
B20: Compound No. 102 (peptide)
peptide: [NMeY][Aib]EGTFISDYSIALDR[Aib]K([GGPAPAP-C18 diacid])Q[Aib]DFVNWLLAQSPSSGAPPPS-OH
B21: Compound No. 87 (peptide)
peptide: [NMeY][Aib]EGTFISDYSI[Aib]LDR[Aib]K([2OEGgEgE-C18 diacid])Q[Aib]DFVNWLLAQSPG-OH
B22: Compound No. 90 (peptide)
peptide: [NMeY][Aib]EGTFISDYSI[Aib]LDR[Aib]AQ[Aib]K([2OEGgEgE-C18 diacid])FVNWLLAQSPSSGAPPPS-NH2
B23: Compound No. 68 (peptide)
peptide: [NMeY][Aib]EGTFISDYSIALDR[Aib]K([2OEGgEgE-C20 diacid])Q[Aib]NFVNWLLAQSPSSGAPPPS-NH2
B24: Compound No. 100 (peptide)
peptide: [NMeY][Aib]EGTFISDYSI[Aib]LDR[Aib]K([AEEA-AEEA-γGlu-γGlu-C18 diacid])Q[Aib]NFVNWLLAQSPSSGAPPPS-NH2
B25: Compound No. 9 (peptide)
peptide: [NMeY][Aib]EGTFISDYSIALDR[Aib]AQ[Aib]K([2OEGgEgE-C17 diacid])FVNWLLAQR-OH
B26: Compound No. 66 (peptide)
peptide: [NMeY][Aib]EGTFISDYSI[Aib]LDR[Aib]AQ[Aib]K([2OEGgEgE-C18 diacid])FVNWLLAQKG-OH
B27: Compound No. 73 (peptide)
peptide: [NMeY][Aib]EGTFISDYSI[Aib]LDR[Aib]K([2OEGgEgE-C18 diacid])Q[Aib]DFVNWLLAQRG-OH
B28: Compound No. 103 (peptide)
peptide: [NMeY][Aib]EGTFISDYSIALDR[Aib]AQ[Aib]K([GGPAPAP-C18 diacid])FVNWLLAQSPSSGAPPPS-OH
B29: Compound No. 7 (peptide)
peptide: [NMeY][Aib]EGTFISDYSIAK([2OEGgEgE-C17 diacid])DR[Aib]AQ[Aib]NFVNWLLAQR-OH
B30: Compound No. 89 (peptide)
peptide: [NMeY][Aib]EGTFISDYSI[Aib]LDR[Aib]AQ[Aib]K([2OEGgEgE-C18 diacid])FVNWLLAQRPSSGAPPPS-NH2
B31: Compound No. 97 (peptide)
peptide: [NMeY][Aib]EGTFISDYSIALDR[Aib]AQ[Aib]K([AEEA-AEEA-γGlu-γGlu-C18 diacid])FVNWLLAQSPSSGAPPPS-NH2
B32: Compound No. 76 (peptide)
peptide: YXEGTFISDYSIAXDKXAQXDFVNWLLAQKG
modifications: N-methyl Tyr 1; Aib at 2,17,20; Lys(G5-C18 diacid) at 14; C-terminal OH
B33: Compound No. 78 (peptide)
peptide: B32 peptide with X14L, K16S
modifications: N-methyl Tyr 1; Aib at 2,20; Lys(G5-C18 diacid) at 17; C-terminal OH
B34: Compound No. 82 (peptide)
peptide: B32 peptide with K16R, K30Q
modifications: N-methyl Tyr 1; Aib at 2,17,20; Lys(G5-C18 diacid) at 14; C-terminal OH
B35: Compound No. 77 (peptide)
peptide: B32 peptide with A13X, X14L, K16S
modifications: N-methyl Tyr 1; Aib at 2,13,20; Lys(G5-C18 diacid) at 17; C-terminal OH

Tests used:
[1] = molecular target: T1, full-length human GIPR with an …; assay: cell-based or functional assay
[2] = molecular target: full-length human GLP-1R with an N-terminal FLAG tag (human, UniProt P43220 24-463); assay: cell-based or functional assay

Row | Binder | Human GIPR cAMP EC50, HEK293T [1] [nM] | Human GLP1R cAMP EC50, HEK293T [2] [nM]
1 | B1 | 0.0005 | 562
2 | B2 | 0.0005 | 30.9
3 | B3 | 0.0009 | 39.8
4 | B4 | 0.0004 | 41.7
5 | B5 | 0.0005 | 479
6 | B6 | 0.0004 | 83.2
7 | B7 | 0.0006 | 36.3
8 | B8 | 0.0004 | 17.4
9 | B9 | 0.0003 | 9.55
10 | B10 | 0.0008 | 102
11 | B11 | 0.0003 | 58.9
12 | B12 | 0.0002 | 58.9
13 | B13 | 0.0004 | 13.5
14 | B14 | 0.0005 | 66.1
15 | B15 | 0.0002 | 43.7
16 | B16 | 0.0003 | 115
17 | B17 | 0.0005 | 468
18 | B18 | 0.0006 | 29.5

Row | Binder | Human GIPR cAMP EC50, HEK293T [1] [nM] | Human GLP1R cAMP EC50, HEK293T [2] [nM]
19 | B19 | 0.0006 | 63.1
20 | B20 | 0.0005 | 117
21 | B21 | 0.0004 | > 1000
22 | B22 | 0.0005 | 72.4
23 | B23 | 0.0007 | > 1000
24 | B24 | 0.0006 | > 1000
25 | B25 | 0.0004 | 7.94
26 | B26 | 0.0008 | 32.4
27 | B27 | 0.0003 | 363
28 | B28 | 0.0017 | 29.5
29 | B29 | 0.0004 | 589
30 | B30 | 0.0004 | 42.7
31 | B31 | 0.0006 | 52.5
32 | B32 | 0.0006 | 28.8
33 | B33 | 0.0003 | 26.9
34 | B34 | 0.0003 | 17.4
35 | B35 | 0.0003 | 17
